Experimental data reported in US20150259666A1.

Tests used:
[1] = molecular target: fibrin (clot prepared from fibrinogen with bovine thrombin); assay: fibrin clot binding assay, 0.3 mg/ml fibrinogen; bound enzyme = total minus free in supernatant by ELISA
[2] = molecular target: fibrin (clot prepared from fibrinogen with bovine thrombin); assay: fibrin clot binding assay, 0.1 mg/ml fibrinogen; bound enzyme = total minus free in supernatant by ELISA
[3] = molecular target: fibrin (clot prepared from fibrinogen with bovine thrombin); assay: fibrin clot binding assay; ratio of CT-b to full-length t-PA

Substance	percent fibrin binding [1]	percent fibrin binding [2]	fold fibrin binding against full-length t-PA [3]
full length t-PA (native human tissue plasminogen activator) (from UniProt P00750 36-562) (enzyme)	51%	24%	
chimeric truncated tissue plasminogen activator (CT t-PA) or CT-b (from UniProt P98119 37-82; P00750 82-214; P00750 297-562) (enzyme)	60%	28%	1.2 fold
